B1: Focal adhesion kinase 1 (Homo sapiens), Q05397 (parent)
chain: MAAAYLDPNLNHTPNSSTKTHLGTGMERSPGAMERVLKVFHYFESNSEPTTWASIIRHGDATDVRGIIQKIVDSHKVKHVACYGFRLSHLRSEEVHWLHVDMGVSSVREKYELAHPPEEWKYELRIRYLPKGFLNQFTEDKPTLNFFYQQVKSDYMLEIADQVDQEIALKLGCLEIRRSYWEMRGNALEKKSNYEVLEKDVGLKRFFPKSLLDSVKAKTLRKLIQQTFRQFANLNREESILKFFEILSPVYRFDKECFKCALGSSWIISVELAIGPEEGISYLTDKGCNPTHLADFTQVQTIQYSNSEDKDRKGMLQLKIAGAPEPLTVTAPSLTIAENMADLIDGYCRLVNGTSQSFIIRPQKEGERALPSIPKLANSEKQGMRTHAVSVSETDDYAEIIDEEDTYTMPSTRDYEIQRERIELGRCIGEGQFGDVHQGIYMSPENPALAVAIKTCKNCTSDSVREKFLQEALTMRQFDHPHIVKLIGVITENPVWIIMELCTLGELRSFLQVRKYSLDLASLILYAYQLSTALAYLESKRFVHRDIAARNVLVSSNDCVKLGDFGLSRYMEDSTYYKASKGKLPIKWMAPESINFRRFTSASDVWMFGVCMWEILMHGVKPFQGVKNNDVIGRIENGERLPMPPNCPPTLYSLMTKCWAYDPSRRPRFTELKAQLSTILEEEKAQQEERMRMESRRQATVSWDSGGSDEAPPKPSRPGYPSPRSSEGFYPSPQHMVQTNHYQVSGYPGSHGITAMAGSIYPGQASLLDQTDSWNHRPQEIAMWQPNVEDSTVLDLRGIGQVLPTHLMEERLIRQQQEMEEDQRWLEKEERFLKPDVRLSRGSIDREDGSLQGPIGNQHIYQPVGKPDPAAPPKKPPRPGAPGHLGSLASLSSPADSYNEGVKLQPQEISPPPTANLDRSNDKVYENVTGLVKAVIEMSSKIQPAPPEEYVPMVKEVGLALRTLLATVDETIPLLPASTHREIEMAQKLLNSDLGELINKMKLAQQYVMTSLQQEYKKQMLTAAHALAVDAKNLLDVIDQARLKMLGQTRPH

Variants of: B1
Settings: with itb4_human ITGB4, P16144
Chain of itb4_human ITGB4, P16144 (P16144 whole entry): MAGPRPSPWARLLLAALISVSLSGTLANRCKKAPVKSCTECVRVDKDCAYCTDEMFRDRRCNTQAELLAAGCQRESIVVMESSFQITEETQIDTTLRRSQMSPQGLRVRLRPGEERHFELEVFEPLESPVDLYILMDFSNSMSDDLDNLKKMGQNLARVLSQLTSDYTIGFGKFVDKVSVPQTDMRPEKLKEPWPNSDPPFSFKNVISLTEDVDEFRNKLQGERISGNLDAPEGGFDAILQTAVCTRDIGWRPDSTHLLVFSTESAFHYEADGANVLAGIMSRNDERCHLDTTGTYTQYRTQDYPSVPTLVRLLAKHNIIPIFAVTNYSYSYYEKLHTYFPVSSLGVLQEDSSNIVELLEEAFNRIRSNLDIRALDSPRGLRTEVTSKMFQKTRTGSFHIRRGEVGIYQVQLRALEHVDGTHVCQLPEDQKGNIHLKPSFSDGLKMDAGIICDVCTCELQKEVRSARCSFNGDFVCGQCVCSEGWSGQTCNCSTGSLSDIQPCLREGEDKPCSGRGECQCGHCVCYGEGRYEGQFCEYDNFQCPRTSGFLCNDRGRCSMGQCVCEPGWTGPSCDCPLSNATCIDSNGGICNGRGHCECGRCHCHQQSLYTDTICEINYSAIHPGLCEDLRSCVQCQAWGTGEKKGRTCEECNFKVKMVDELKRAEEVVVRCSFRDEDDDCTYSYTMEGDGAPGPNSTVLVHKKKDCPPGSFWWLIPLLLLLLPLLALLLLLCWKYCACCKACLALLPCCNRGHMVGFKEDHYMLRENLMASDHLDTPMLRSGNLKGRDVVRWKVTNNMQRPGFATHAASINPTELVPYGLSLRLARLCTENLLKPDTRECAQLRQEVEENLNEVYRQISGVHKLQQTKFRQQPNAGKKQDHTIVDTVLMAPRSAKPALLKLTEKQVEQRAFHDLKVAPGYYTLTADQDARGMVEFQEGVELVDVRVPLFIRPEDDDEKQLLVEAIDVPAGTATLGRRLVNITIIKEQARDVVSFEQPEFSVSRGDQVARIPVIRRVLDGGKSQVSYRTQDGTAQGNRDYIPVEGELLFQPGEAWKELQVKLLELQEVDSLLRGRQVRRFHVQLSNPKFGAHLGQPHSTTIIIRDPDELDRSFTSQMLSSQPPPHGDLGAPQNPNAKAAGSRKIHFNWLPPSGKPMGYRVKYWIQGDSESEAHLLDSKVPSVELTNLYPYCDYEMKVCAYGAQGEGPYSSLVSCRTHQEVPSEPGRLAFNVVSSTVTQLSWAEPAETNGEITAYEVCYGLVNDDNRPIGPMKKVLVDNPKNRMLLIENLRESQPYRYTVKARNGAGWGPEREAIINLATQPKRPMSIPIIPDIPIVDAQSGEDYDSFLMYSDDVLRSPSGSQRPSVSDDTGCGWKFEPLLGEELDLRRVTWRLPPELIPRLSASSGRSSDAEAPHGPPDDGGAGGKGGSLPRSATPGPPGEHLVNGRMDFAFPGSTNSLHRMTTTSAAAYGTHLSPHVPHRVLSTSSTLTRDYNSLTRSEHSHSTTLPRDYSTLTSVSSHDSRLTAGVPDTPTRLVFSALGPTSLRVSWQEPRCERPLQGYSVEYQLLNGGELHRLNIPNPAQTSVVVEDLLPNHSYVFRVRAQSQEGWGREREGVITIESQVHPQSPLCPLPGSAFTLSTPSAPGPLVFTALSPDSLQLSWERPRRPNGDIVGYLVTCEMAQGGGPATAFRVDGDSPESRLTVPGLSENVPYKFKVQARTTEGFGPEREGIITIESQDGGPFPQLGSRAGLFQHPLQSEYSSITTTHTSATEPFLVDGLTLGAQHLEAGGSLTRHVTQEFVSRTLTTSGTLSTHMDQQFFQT

effect of a mutation on the interaction | Variant
disrupting interaction | E380A;K381A;Q382A

Variants of: B1
Settings: with itb4_human ITGB4, P16144
Remark: another data set of the same source

effect of a mutation on the interaction | Variant
decreasing interaction | R385A;T386A

— IntAct's records for PubMed 27178753
